Test results reported in publication PMC3880865 (Nature structural & molecular biology, 2012).
Substitutions are numbered along the chain they refer to. Names and notes keep the numbering of the source. Blank lines part the entries; values can stand above or below the binder they belong to.

Target: UbcH5B (UniProt P62837 1-147)
Assay: SPR

- Kd: 320 µM
B1: GST-CBL47–435 M222F (domain or fragment)
chain: PPGTVDKKMVEKCWKLMDKVVRLCQNPKLALKNSPPYILDLLPDTYQHLRTILSRYEGKMETLGENEYFRVFMENLMKKTKQTISLFKEGKERMYEENSQPRRNLTKLSLIFSHMLAELKGIFPSGLFQGDTFRITKADAAEFWRKAFGEKTIVPWKSFRQALHEVHPISSGLEAFALKSTIDLTCNDYISVFEFDIFTRLFQPWSSLLRNWNSLAVTHPGYMAFLTYDEVKARLQKFIHKPGSYIFRLSCTRLGQWAIGYVTADGNILQTIPHNKPLFQALIDGFREGFYLFPDGRNQNPDLTGLCEPTPQDHIKVTQEQYELYCEMGSTFQLCKICAENDKDVKIEPCGHLMCTSCLTSWQESEGQGCPFCRCEIKGTEPIVVDPFD

- Kd: 38 µM
B2: GST-CBL354–435 Y368F (domain or fragment)
chain: EPTPQDHIKVTQEQFELYCEMGSTFQLCKICAENDKDVKIEPCGHLMCTSCLTSWQESEGQGCPFCRCEIKGTEPIVVDPFD

- Kd: 50 µM
B3: GST-CBL354–435 Y371F (domain or fragment)
chain: B2 chain with F15Y, Y18F

- Kd: 42 µM
B4: GST-CBL354–435 WT (domain or fragment)
chain: B2 chain with F15Y

- Kd: 81 µM
B5: GST-CBL47–435 Y368F pY371 K389A (domain or fragment)
chain: B1 chain with F176M, Y322F, K343A
modifications: phosphotyrosine at 371

- Kd: 43 µM
B6: GST-CBL47–435 Y368F pY371 V431A (domain or fragment)
chain: B1 chain with F176M, Y322F, V385A
modifications: phosphotyrosine at 371

- Kd: 20 µM
B7: GST-CBL354–435 pY371 (domain or fragment)
chain: B2 chain with F15Y
modifications: phosphotyrosine at 371

- Kd: 18 µM
B8: GST-CBL354–435 Y368F pY371 (domain or fragment)
chain: B2 chain
modifications: phosphotyrosine at 371
